Data reported in PMC10665427, “The heat shock protein LarA activates the Lon protease in response to proteotoxic stress” (Nature Communications, 2023).

B1: N-terminally 3xFLAG-tagged LarA [C. crescentus] / Lon, endogenous [C. crescentus (endogenous in WT cells)] (parent complex)
chain 1: MTPSTQHSRPLTSEAFAALGAPALVYVRPIKAAEILADAPEGVEDLDLSPDQTLYAVCRADGERLAVLIDRDTAIAAALAHELAPVSVH
chain 2: MSELRTLPVLPLRDIVVFPHMVVPLFVGRDKSVRALEEVMRGDKQILLVTQKNSADDDPAPGDIFEVGVLATVLQLLKLPDGTVKVLVEGKARAAVVSFTDQESYYEAQIGEVSEDDGAGPEAEALSRAVVEQFENYVKLNKKVPPEALASIPQIAEPGKLADSIAAHLSVKIGDKQNLLEIFDVVKRLEKVFALMEGEISVLQVEKKIRSRVKRQMEKTQREYYLNEQMKAIQRELGDPDDARDELIDLEKRIKKTKLSKEARTKAESELKKLRNMSPMSAESTVVRNYLDWLLSIPWGKAKTKKIDLVESEGILDADHYGLEKVKERILEYLAVQARTNSLKGPILCLVGPPGVGKTSLGKSIAKATGREFVRMSLGGVRDEAEIRGHRRTYIGSMPGKVVQSMKKAKTTNAFVLLDEIDKMGSDYRGDPASALLEVLDPSQNSTFGDHYLEVDYDLSQVMFVTTANSLNMPQPLLDRMEIIRIPGYTEDEKLEIAKRHILPKLAKDHGLKPAEFIVPDKAIRDLIRYYTREAGVRSLERELGALARKTVRDLAREKVASITIDDERLAKYAGVKKYRYGETDEVDQVGIVTGLAWTEFGGDILTIEAVKMPGKGRMQITGNLKDVMKESIAAANSYVRSRALQFGIKPPVFEKTDVHIHVPDGATPKDGPSAGIAMALAMVSVLTGIPIRKDIAMTGEITLRGRVTAIGGLKEKLLAALRSGVKTVLIPQENEKDLADVPQTVKDGLEIIPVSTVDEVLKHALTGPLTPVEWNEAEEPITTSAKKDDGDSDAMLTH

Variants of: B1
Assay: co-immunoprecipitation (α-FLAG IP, anti-Lon immunoblot quantified); WT cells, Pxyl-3xFLAG-larA variants induced one hour with xylose prior to cell lysis and IP; n = 3; parent: 4.5; read off a plot

Variant	response
chain 1 V88D, chain 1 H89D	~1 relative Lon level (vs VC = 1)
chain 1 V86A, chain 1 V88A	~1.7 relative Lon level (vs VC = 1)
